Data: PMC3229523, “Identification of Lactoferricin B Intracellular Targets Using an Escherichia coli Proteome Chip” (PLoS ONE, 2011)
Ends that are not written are not given here. * marks the point of attachment. Biotin = O=C1N[C@H]2[C@H](CS[C@H]2CCCCC(=O)*)N1

Legend:
Test in all cases: peptide or protein array; E. coli proteome chip: purified His-tagged proteins printed in duplicate on Fullmoon slides, blocked with 1% BSA; 10 nM N-terminal biotinylated LfcinB with 1% BSA, room temperature, 1 h; detected with DyLight 649-labeled streptavidin, ratio to DyLight 549-labeled anti-His antibody; ProCAT normalisation, local cut-off; triplicate chips
Conditions in all cases: both partners purified
YcaO = molecular target: T1, YcaO (E. coli K-12, UniProt P75838 1-586)
T1 construct: YcaO, E. coli K-12
T1 sequence (P75838 whole entry): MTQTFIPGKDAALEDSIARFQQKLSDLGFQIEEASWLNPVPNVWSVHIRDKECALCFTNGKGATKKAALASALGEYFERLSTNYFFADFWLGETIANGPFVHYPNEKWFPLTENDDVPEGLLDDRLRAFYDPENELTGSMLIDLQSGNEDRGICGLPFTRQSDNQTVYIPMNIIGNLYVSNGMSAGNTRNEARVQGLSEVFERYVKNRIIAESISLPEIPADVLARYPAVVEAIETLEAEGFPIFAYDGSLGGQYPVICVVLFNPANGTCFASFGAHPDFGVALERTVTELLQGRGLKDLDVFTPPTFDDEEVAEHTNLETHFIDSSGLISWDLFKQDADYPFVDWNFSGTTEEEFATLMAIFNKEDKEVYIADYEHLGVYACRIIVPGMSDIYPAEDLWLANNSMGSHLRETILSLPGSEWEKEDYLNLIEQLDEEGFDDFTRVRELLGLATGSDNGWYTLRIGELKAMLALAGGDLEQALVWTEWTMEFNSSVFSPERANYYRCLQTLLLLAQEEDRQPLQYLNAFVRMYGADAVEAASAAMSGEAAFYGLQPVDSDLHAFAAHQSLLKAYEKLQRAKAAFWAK

GldA = molecular target: T2, GldA (E. coli K-12, UniProt P0A9S5 1-367)
T2 construct: GldA, E. coli K-12
T2 sequence (looked up): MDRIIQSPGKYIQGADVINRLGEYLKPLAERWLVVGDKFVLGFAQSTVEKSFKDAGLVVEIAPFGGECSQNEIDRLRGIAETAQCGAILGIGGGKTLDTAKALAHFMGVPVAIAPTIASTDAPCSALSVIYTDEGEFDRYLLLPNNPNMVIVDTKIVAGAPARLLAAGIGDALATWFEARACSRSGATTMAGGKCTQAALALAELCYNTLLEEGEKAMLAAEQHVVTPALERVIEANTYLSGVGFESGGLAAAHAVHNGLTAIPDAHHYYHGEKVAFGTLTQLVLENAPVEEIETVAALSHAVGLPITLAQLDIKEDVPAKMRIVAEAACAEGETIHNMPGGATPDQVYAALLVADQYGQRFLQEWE

YchA = molecular target: T3, YchA (E. coli K-12, UniProt P0AGM5 1-269)
T3 construct: YchA, E. coli K-12
T3 sequence (looked up): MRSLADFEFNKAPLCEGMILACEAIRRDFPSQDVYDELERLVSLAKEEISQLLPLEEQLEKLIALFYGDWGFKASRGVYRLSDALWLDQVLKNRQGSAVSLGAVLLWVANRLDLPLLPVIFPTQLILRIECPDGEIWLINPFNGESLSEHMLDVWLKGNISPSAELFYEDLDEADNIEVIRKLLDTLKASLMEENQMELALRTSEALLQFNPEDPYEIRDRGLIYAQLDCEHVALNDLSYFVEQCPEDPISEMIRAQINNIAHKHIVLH

CaiA = molecular target: T4, CaiA (E. coli K-12, UniProt P60584 1-380)
T4 construct: CaiA, E. coli K-12
T4 sequence (looked up): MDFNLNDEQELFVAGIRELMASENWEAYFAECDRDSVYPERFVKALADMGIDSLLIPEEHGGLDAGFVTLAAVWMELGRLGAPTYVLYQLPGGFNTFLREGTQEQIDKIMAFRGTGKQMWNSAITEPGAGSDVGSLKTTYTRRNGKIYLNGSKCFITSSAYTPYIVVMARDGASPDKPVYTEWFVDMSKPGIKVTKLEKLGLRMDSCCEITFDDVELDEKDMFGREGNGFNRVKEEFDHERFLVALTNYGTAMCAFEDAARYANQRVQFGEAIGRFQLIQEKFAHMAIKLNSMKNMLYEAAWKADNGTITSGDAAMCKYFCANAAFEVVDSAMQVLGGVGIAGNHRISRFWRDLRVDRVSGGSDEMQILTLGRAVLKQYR

Hha = molecular target: T5, Hha (E. coli K-12, UniProt P0ACE3 1-72)
T5 construct: Hha, E. coli K-12
T5 sequence (looked up): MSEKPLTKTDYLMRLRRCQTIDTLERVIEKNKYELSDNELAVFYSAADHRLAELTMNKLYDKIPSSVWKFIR

YcgW = molecular target: T6, YcgW (E. coli K-12, UniProt P75987 1-107)
T6 construct: YcgW, E. coli K-12
T6 sequence (looked up): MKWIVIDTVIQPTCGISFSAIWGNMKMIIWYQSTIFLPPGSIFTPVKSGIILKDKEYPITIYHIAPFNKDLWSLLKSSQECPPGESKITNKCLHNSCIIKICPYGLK

YqcA = molecular target: T7, YqcA (E. coli K-12, UniProt P65367 1-149)
T7 construct: YqcA, E. coli K-12
T7 sequence (looked up): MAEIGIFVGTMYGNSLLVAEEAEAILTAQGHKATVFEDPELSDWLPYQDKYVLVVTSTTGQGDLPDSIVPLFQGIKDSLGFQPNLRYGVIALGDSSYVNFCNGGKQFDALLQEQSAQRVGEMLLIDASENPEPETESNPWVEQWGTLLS

Measured: binding result

B1: N-terminal biotinylated Lactoferricin B (peptide, UniProt P24627 36-60, looked up)
peptide: Biotin-FKCRRWQWRMKKLGAPSITCVRRAF
modifications: ends and bridges not checked
notes: lactoferricin B (LfcinB), cationic antimicrobial peptide of 25 amino acids; also called biotinylated LfcinB; biotin-labeled LfcinB; source: bought: Kelowna Inc
binds: all assays above
